Changes are numbered by the printed parent chain. One block for each binder: values may come before it.
Columns and labels:
[1] = molecular target: T1, human MET extracellular domain (ECD) (human, UniProt P08581 25-932); experiment: ELISA, periplasmic Fab on MET ECD
T1 construct: range 1-932; recombinant ECD; also called hMET; human MET ECD
Procedure: (§1) Fab-expressing phages from the libraries described above were produced according to standard phage display protocols. For selection, phages were first adsorbed to immobilized recombinant human MET ECD, washed, and then eluted using trypsin. After two cycles of selection with human MET ECD, two other cycles were performed in the same fashion using mouse MET ECD. In parallel, we also selected phages alternating a human MET ECD cycle with a mouse MET ECD cycle, for a total of four cycles. Phages selected by the two approaches were pooled together and then used to infect TG1 E. coli. Individual colonies were isolated and secretion of Fabs was induced using IPTG (Fermentas). The Fab-containing periplasmic fraction of bacteria was collected and tested for its ability to bind human and mouse MET ECD by Surface Plasmon Resonance (SPR). Human or mouse MET ECD was immobilized on a CM-5 chip using amine coupling in sodium acetate buffer (GE Healthcare). The Fab-containing periplasmic extracts were loaded into a BIACORE 3000 apparatus (GE Healthcare) with a flow rate of 30 μl/min. The Fab off-rates (koff) were measured over a two minute period. Binding of Fabs to human and mouse MET was further characterized by ELISA using MET ECD in solid phase and periplasmic crude extract in solution.
(§2) TABLE 7 Fabs binding to both human MET (hMET) and mouse MET (mMET). Fabs are grouped in families based on their VH CDR3 sequence. Binding of Fabs to human and mouse MET ECD was determined by Surface Plasmon Resonance (SPR) and by ELISA. SPR values represent the koff (s⁻¹). ELISA values represent the Optical Density (OD) at 450 nm (AU, arbitrary units). Both SPR and ELISA were performed using crude periplasmic extracts. Fab concentration in the extract was not determined. Values are the mean of three independent measurements.

[2] = molecular target: T2, mouse MET extracellular domain (ECD) (mouse, UniProt P16056 25-931); experiment: ELISA, periplasmic Fab on MET ECD
T2 construct: range 1-931; recombinant ECD; also called mMET; mouse MET ECD
Procedure: as §1, §2

[3] = molecular target: T3, human MET-Fc chimeric protein (R&D Systems) (human, UniProt P08581 25-932); experiment: competition ELISA, hMET-Fc in solid phase, competitor 0.3 nM biotinylated hHGF
T3 construct: extracellular domain; bought (R&D Systems); also called hMET; not shown: Fc portion of human IgG1
Procedure: (§3) To investigate along this line, we tested the competition between mAbs and HGF by ELISA. Recombinant human and mouse HGF (R&D Systems) were biotinylated at the N-terminus using NHS-LC-biotin (Thermo Scientific). MET-Fc protein, either human or mouse (R&D Systems), was immobilized in solid phase and then exposed to 0.3 nM biotinylated HGF, either human or mouse, in the presence of increasing concentrations of antibodies (0-120 nM).
(§4) A MET-Fc chimeric protein (either human or mouse) was immobilized in solid phase and exposed to a fixed concentration of biotinylated HGF (either human or mouse), in the presence of increasing concentrations of antibodies. […] Antibody-HGF competition is expressed as IC₅₀ (the concentration that achieves 50% competition) and IMAX (the maximum % competition reached at saturation).

[4] = molecular target: T4, mouse MET-Fc chimeric protein (R&D Systems) (mouse, UniProt P16056 25-929, limits assumed); experiment: competition ELISA, mMET-Fc in solid phase, competitor 0.3 nM biotinylated mHGF
T4 construct: bought (R&D Systems); also called mMET; not shown: Fc
Procedure: as §3, §4

[5] = molecular target: T5, native mouse MET on living mouse cells (mouse, UniProt P16056 25-1379); experiment: flow cytometry, MLP29 cells
T5 construct: whole, on cells; also called Mouse cells (MLP29)
Procedure: (§5) We also analysed whether chimeric anti-MET antibodies bound to native human and mouse MET in living cells. […] Antibody binding to cells was analysed by flow cytometry using phycoerythrin-conjugated anti-human IgG1 antibodies (eBioscience) and a CyAn ADP analyser (Beckman Coulter). As a positive control for human MET binding, we used a commercial mouse anti-human MET antibody (R&D Systems) and phycoerythrin-conjugated anti-mouse IgG1 antibodies (eBioscience). As a positive control for mouse MET binding we used a commercial goat anti-mouse MET antibody (R&D Systems) and phycoerythrin-conjugated anti-goat IgG1 antibodies (eBioscience). […] Consistent with the data obtained in ELISA, maximal binding (EMAX) varied depending on antibody, but was similar in human and mouse cells.

[6] = molecular target: T6, native human MET on living human cells (human, UniProt P08581 25-1390); experiment: cell-based or functional assay
[7] = molecular target: T5, native mouse MET on living mouse cells; experiment: cell-based or functional assay
[8] = molecular target: T6, native human MET on living human cells; experiment: cell-based or functional assay; remark: listed apart in the source
[9] = molecular target: T5, native mouse MET on living mouse cells; experiment: cell-based or functional assay; remark: listed apart in the source
[10] = molecular target: T6, native human MET on living human cells; experiment: flow cytometry, A549 cells
Procedure: as §5

T1 sequence (P08581 25-932 limits assumed, form in doubt): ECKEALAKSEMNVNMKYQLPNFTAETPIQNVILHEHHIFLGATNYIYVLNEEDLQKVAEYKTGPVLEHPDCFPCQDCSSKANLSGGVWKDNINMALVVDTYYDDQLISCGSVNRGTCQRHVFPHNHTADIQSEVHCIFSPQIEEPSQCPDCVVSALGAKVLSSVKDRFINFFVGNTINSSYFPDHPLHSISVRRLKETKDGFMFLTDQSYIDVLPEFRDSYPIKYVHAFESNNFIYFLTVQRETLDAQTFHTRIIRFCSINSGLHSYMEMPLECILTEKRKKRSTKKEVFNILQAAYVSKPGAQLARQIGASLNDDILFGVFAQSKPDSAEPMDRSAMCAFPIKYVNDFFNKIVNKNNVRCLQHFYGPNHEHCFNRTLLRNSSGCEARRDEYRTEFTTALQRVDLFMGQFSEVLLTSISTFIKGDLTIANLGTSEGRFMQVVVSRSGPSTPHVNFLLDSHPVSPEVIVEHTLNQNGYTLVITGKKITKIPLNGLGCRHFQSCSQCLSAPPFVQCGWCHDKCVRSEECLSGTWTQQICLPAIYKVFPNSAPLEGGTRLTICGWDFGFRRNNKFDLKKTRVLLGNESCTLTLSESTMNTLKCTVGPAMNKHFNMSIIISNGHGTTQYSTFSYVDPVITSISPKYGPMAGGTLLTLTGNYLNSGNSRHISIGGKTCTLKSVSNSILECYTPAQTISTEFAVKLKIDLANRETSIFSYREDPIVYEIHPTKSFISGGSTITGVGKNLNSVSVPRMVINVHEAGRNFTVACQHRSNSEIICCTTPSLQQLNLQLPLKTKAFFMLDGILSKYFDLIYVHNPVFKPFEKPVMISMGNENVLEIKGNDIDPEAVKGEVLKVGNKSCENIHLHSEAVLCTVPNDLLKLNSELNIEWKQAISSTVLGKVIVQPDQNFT
T6 sequence (P08581 25-1390): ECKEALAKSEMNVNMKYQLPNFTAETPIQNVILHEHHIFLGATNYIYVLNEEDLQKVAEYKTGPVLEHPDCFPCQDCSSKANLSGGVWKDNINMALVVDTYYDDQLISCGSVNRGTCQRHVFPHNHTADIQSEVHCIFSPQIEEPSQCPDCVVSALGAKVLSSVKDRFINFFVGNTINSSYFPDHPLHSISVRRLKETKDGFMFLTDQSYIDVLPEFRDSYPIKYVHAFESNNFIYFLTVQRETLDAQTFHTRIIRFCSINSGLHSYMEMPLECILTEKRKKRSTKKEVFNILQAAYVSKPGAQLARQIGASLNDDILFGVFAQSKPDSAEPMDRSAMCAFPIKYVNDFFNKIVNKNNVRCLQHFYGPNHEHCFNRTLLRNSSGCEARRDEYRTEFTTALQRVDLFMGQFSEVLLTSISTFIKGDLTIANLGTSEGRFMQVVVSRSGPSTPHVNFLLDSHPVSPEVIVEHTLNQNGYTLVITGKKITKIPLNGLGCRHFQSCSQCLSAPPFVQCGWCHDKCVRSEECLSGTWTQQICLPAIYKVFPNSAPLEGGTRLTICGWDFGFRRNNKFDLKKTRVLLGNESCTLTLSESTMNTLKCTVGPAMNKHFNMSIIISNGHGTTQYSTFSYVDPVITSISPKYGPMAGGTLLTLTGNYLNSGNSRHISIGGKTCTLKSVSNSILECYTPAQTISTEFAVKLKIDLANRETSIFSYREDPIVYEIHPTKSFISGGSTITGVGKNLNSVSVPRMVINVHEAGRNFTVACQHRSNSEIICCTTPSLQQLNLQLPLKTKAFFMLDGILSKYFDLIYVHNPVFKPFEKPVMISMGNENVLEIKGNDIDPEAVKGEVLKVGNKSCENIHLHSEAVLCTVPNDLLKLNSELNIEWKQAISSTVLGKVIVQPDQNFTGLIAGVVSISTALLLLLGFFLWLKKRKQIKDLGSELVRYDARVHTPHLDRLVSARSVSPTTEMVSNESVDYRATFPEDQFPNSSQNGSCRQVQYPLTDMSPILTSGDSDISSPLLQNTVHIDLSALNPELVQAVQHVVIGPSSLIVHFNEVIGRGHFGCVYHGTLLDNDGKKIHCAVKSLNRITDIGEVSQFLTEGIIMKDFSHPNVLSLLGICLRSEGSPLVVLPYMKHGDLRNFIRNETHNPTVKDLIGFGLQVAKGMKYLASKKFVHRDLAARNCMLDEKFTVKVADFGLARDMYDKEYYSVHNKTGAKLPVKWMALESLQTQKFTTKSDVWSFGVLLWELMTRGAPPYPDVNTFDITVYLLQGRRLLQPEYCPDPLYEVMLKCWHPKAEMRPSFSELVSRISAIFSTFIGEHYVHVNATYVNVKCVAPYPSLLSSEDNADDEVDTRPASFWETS
T3 sequence (P08581 25-932, change not shown): as the sequence (P08581 25-932 limits assumed, form in doubt) above

- ELISA OD450 [1]: 0.581 AU
- ELISA OD450 [2]: 0.524 AU
B1: Fab 71A3 (Fab, V domains shown)
VH: EVQLVESGGGLVQPGGSLRLSCAASGFSFKDYDITWVRQAPGKGLEWVSTITSRSGSTSYVDSVKGRFTISGDNAKNTLYLQMNSLKPEDTAVYYCAKVYATTWDVGPLGYGMDYWGKGTLVTVSS
VL: SYELTQPSALSVTLGQTAKITCQGGSLGSSYAHWYQQKPGQAPVLVIYDDDSRPSGIPERFSGSSSGGTATLTISGAQAEDEGDYYCQSADSSGNAAVFGGGTHLTVL
notes: llama Fab (VH-CH1, lambda VL-CL) with MYC flag, crude periplasmic extract

- ELISA OD450 [1]: 2.98 AU
- ELISA OD450 [2]: 2.92 AU
B3: Fab 74C8 (Fab, V domains shown)
VH: EVQLVESGGGLVQPGGSLRLSCAASGFTFRNYHMSWVRQVPGKGFEWISDINSAGGSTYYADSVKGRFTISRDNAKNTLYLEMNSLKPEDTALYYCARVNVWGVNYWGKGTLVSVSS
VL: QTVVTQEPSLSVSPGGTVTLTCGLSSGSVTTSNYPGWFQQTPGQAPRTLIYNTNSRHSGVPSRFSGSISGNKAALTITGAQPEDEADYYCSLYPGSYTNVFGGGTHLTVL
notes: as for B1

- ELISA OD450 [1]: 0.311 AU
- ELISA OD450 [2]: 0.307 AU
B6: Fab 71D4 (Fab, V domains shown)
VH: ELQLVESGGGLVQPGGSLRLSCAASGFTFSGYGMSWVRQAPGKGLEWVSDINSGGGSTSYADSVKGRFTISRDNAKNTLYLQMNSLKPEDTAVYYCAKDMRLYLARYNDYEAWDYWGQGTQVTVSS
VL: B1 VL with Y2S, E3A
notes: as for B1

- ELISA OD450 [1]: 0.561 AU
- ELISA OD450 [2]: 0.543 AU
B7: Fab 71G2 (Fab, V domains shown)
VH: EVQLQESGGGLVQPGGSLRLSCAASGFTFSIYDMSWVRQAPGKGLEWVSTINSDGSSTSYVDSVKGRFTISRDNAKNTLYLQMNSLKPEDTAVYYCAKVYGSTWDVGPMGYGMDYWGKGTLVTVSS
VL: SSALTQPSALSVSLGQTARITCQGGSLGSSYAHWYQQKPGQAPVLVIYGDDSRPSGIPERFSGSSSGGTATLTISGAQAEDEDDYYCQSTDSSGNTVFGGGTRLTVL
notes: as for B1

- IMAX (maximum % competition) [3]: 77.3%
- IMAX (maximum % competition) [4]: 72.8%
- EMAX (% relative to control) [5]: 172%
- cell scattering score, HPAF-II, 0.001 nM [8]: 0 score 0-4
- cell scattering score, HPAF-II, 0.004 nM [8]: 0 score 0-4
- cell scattering score, HPAF-II, 0.012 nM [8]: 0 score 0-4
- cell scattering score, HPAF-II, 0.037 nM [8]: 0 score 0-4
- cell scattering score, HPAF-II, 0.111 nM [8]: 0 score 0-4
- cell scattering score, HPAF-II, 0.333 nM [8]: 0 score 0-4
- cell scattering score, HPAF-II, 1.000 nM [8]: 1 score 0-4
- cell scattering score, HPAF-II, 3.000 nM [8]: 2 score 0-4
- cell scattering score, HPAF-II, 9.000 nM [8]: 3 score 0-4
- cell scattering score, MLP29, 0.001 nM [9]: 0 score 0-4
- cell scattering score, MLP29, 0.004 nM [9]: 0 score 0-4
- cell scattering score, MLP29, 0.012 nM [9]: 0 score 0-4
- cell scattering score, MLP29, 0.037 nM [9]: 0 score 0-4
- cell scattering score, MLP29, 0.111 nM [9]: 0 score 0-4
- cell scattering score, MLP29, 0.333 nM [9]: 0 score 0-4
- cell scattering score, MLP29, 1.000 nM [9]: 1 score 0-4
- cell scattering score, MLP29, 3.000 nM [9]: 2 score 0-4
- cell scattering score, MLP29, 9.000 nM [9]: 3 score 0-4
- EMAX (% relative to control) [10]: 156%
B10: chimeric llama-human IgG1 mAb 72F8 (antibody, V domains shown)
VH: ELQLVESGGGLVQPGGSLRLSCAASGFTFSNYVMSWVRQAPGKGLEWVSDTNSGGSTSYADSVKGRFTISRDNAKNTLYLQMNSLKPEDTALYYCARSFFYGMNYWGKGTQVTVSS
VL: QSALTQPPSLSASPGSSVRLTCTLSSGNNIGSYDISWYQQKAGSPPRYLLNYYTDSRKHQDSGVPSRFSGSKDASANAGLLLISGLQPEDEADYYCSAYKSGSYRWVFGGGTHVTVL
- protection from staurosporine, viability EC50, MCF10A [6]: > 32 nM
- protection from staurosporine, viability EMAX, MCF10A [6]: 35.8%
- protection from staurosporine, viability EC50, MLP29 [7]: > 32 nM
- protection from staurosporine, viability EMAX, MLP29 [7]: 43.8%

- ELISA OD450 [1]: 3.38 AU
- ELISA OD450 [2]: 3.08 AU
B11: Fab 72F8 (Fab, V domains shown)
VH: B10 VH
VL: B10 VL
notes: as for B1

Second part, the binder before the results:

B2: Fab 76H10 (Fab, V domains shown)
VH: QLQLVESGGGLVQPGGSLRVSCTASGFTFNTYYMTWVRQAPGKGLEWVSDINSGGGTYYADSVKGRFTISRDNAKNTLYLQMNSLKPEDTALYYCVRVRIWPVGYDYWGQGTQVTVSS
VL: B3 VL with T2A, S55N, P94T, N99T
notes: as for B1
- ELISA OD450 [1]: 3.7 AU
- ELISA OD450 [2]: 3.7 AU

B4: Fab 71D6 (Fab, V domains shown)
VH: B6 VH with G31S, D50A, G54Y, D99E, M100V, L102A, Y103D, A105S, A112S, W113Y
VL: QPVLNQPSALSVTLGQTAKITCQGGSLGARYAHWYQQKPGQAPVLVIYDDDSRPSGIPERFSGSSSGGTATLTISGAQAEDEGDYYCQSADSSGSVFGGGTHLTVL
notes: as for B1
- ELISA OD450 [1]: 3.26 AU
- ELISA OD450 [2]: 3.07 AU

B5: Fab 71C3 (Fab, V domains shown)
VH: B6 VH with E1Q, G31S, Y32H, G33A, D50A, D99E, M100L, L102F, Y103D, N108T
VL: B1 VL
notes: as for B1
- ELISA OD450 [1]: 1.65 AU
- ELISA OD450 [2]: 1.64 AU

B8: Fab 76G7 (Fab, V domains shown)
VH: QVQLVESGGNLVQPGGSLRLSCAASGFTFSNYYMSWVRQAPGKGLEWVSDIYSDGSTTWYSDSVKGRFTISRDNAKNTLSLQMNSLKSEDTAVYYCARVKIYPGGYDAWGQGTQVTVSS
VL: QAGLTQPPSVSGSPGKTVTISCAGNSSDVGYGNYVSWYQQFPGMAPKLLIYLVNKRASGITDRFSGSKSGNTASLTISGLQSEDEADYYCASYTGSNNIVFGGGTHLTVL
notes: as for B1
- ELISA OD450 [1]: 3.2 AU
- ELISA OD450 [2]: 3.08 AU

B9: Fab 71G3 (Fab, V domains shown)
VH: QVQLVESGGGLVQPGGSLRVSCAASGFTFSTYYMSWVRQAPGKGLEWVSDIRTDGGTYYADSVKGRFTMSRDNAKNTLYLQMNSLKPEDTALYYCARTRIFPSGYDYWGQGTQVTVSS
VL: QAVVTQEPSLSVSPGGTVTLTCGLSSGSVTTSNYPGWFQQTPGQAPRTLIYNTNSRHSGVPSRFSGSISGNKAALTIMGAQPEDEADYYCSLYPGSTTVFGGGTHLTVL
notes: as for B1
- ELISA OD450 [1]: 3.46 AU
- ELISA OD450 [2]: 3.44 AU
